B1: H2B S2 (ssDNA)
DNA: CACCTTCTCAGCGACGCTTCCTCTTTCCCTAGCGACGTGTAACCACGCGATTTGTGCCATC
B2: H4-a (ssDNA)
DNA: GTAGGGCGCAGATTTGGGCTAAAAAAGAAGACGCGGGAAGGGGCAAATAAAAATG
B3: H2B-a (ssDNA)
DNA: TAGAAGTGCACAGGGGCGCAGATTTCGGCTGCGGAAGGGGGGAAAAAGCGGGCGGGAAAGAAAT
B4: H4 S1 (ssDNA)
DNA: ACACCCACCTGCTTCCTCTGCGCCCTTTCCCTCCAGCTTAGACCATCGCGTTCAT
B5: H4 S2 (ssDNA)
DNA: TACCTCACCTGCTTCTTCTTCGCGTTCCCTCCTCCAGCCCAAACTTGCGCCTCAT
B6: H4-b (ssDNA)
DNA: CATTTTTATTTGCCCCTTCCCGCGTCTTCTTTTTTAGCCCAAATCTGCGCCCTAC
B7: H2B-b (ssDNA)
DNA: ATTTCTTTCCCGCCCGCTTTTTCCCCCCTTCCGCAGCCGAAATCTGCGCCCCTGTGCACTTCTA
B8: H2B S1 (ssDNA)
DNA: ACCCCTCCTTCGCTCGCTCCTTCCTTTCTCCCGCAGCCGAGACTTGCGCTTTACGTGATCC
B9: aGN-a (ssDNA)
DNA: CAATTTGAGCTTCAAAAAATACCGCCAAAAAATGGCAATTCGGTTTTAAAAATG

For the first data set, the target named is T1, gTBP (GST-gTBP) (Giardia intestinalis WB C6 (ATCC 50803), UniProt E2RU70 1-200).
T1 sequence: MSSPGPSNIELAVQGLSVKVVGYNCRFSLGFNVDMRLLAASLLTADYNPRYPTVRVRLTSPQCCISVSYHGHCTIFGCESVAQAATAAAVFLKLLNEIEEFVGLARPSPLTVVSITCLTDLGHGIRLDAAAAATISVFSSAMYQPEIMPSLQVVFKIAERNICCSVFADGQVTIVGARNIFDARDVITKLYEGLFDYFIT
Nature of the data set: competition; vs H2B-a probe; 10 mM Tris-HCl pH 8.0, 0.15 M NaCl, 0.5 mM TCEP, 5% glycerol, 1 ug/ul BSA, 15 ng/ul salmon sperm DNA, 30 min on ice; probe 0.1 pmol/ul, competitor 200-fold excess. To be noted: protein: recombinant; tags: N-terminal GST.
For CTGCGGTTGGGGGGTTTTAGCGGGCGGGAAAGAAAT (ssDNA) [H2B-a R3], the binding result is “binds”.

For the next data set, the target named is T1, gTBP (GST-gTBP). Description: competition; vs H2B-b probe; less well than H2B S1; 10 mM Tris-HCl pH 8.0, 0.15 M NaCl, 0.5 mM TCEP, 5% glycerol, 1 ug/ul BSA, 15 ng/ul salmon sperm DNA, 30 min on ice; probe 0.1 pmol/ul, competitor 200-fold excess. The conditions noted are these: protein: recombinant; tags: N-terminal GST.
As to B1, the binding result is reported as “binds”.

The target of another data set is T1, gTBP (GST-gTBP). Description: EMSA; A complex; total binding, Hill fit; 10 mM Tris-HCl pH 8.0, 0.15 M NaCl, 0.5 mM TCEP, 5% glycerol, 1 ug/ul BSA, 15 ng/ul salmon sperm DNA, 30 min on ice; probe 0.1 pmol/ul, competitor 200-fold excess. The conditions noted are these: protein: recombinant; tags: N-terminal GST; label: 5'Cy5.
The term Kd denotes the equilibrium constant for the complex coming apart. Regarding B2, the Kd was 500 µM.
For the molecule B3, the Kd was found to be 7200 µM.

The next data set addresses T1, gTBP (GST-gTBP). Description: competition; vs H4-b probe; 10 mM Tris-HCl pH 8.0, 0.15 M NaCl, 0.5 mM TCEP, 5% glycerol, 1 ug/ul BSA, 15 ng/ul salmon sperm DNA, 30 min on ice; probe 0.1 pmol/ul, competitor 200-fold excess. To be noted: protein: recombinant; tags: N-terminal GST.
For CTTTTTTAGCCCAAATCTGCGCCCTAC (ssDNA) [H4 R], the binding result is on record as “binds”.
In the case of B4, the binding result was “binds”.
Consider CCTTCCCGCGTCTTCTTTTTTAGCCCAA (ssDNA) [H4 C], for which the binding result is listed as “binds”.
Take CATTTTTATTTGCCCCTTCCCGCGTCTT (ssDNA) [H4 L]: the binding result is reported as “binds”.
As to B5, the binding result is “binds”.

Another data set concerns the target T1, gTBP (GST-gTBP). Nature of the data set: EMSA; B1+B2 complexes; Hill n about 2; 10 mM Tris-HCl pH 8.0, 0.15 M NaCl, 0.5 mM TCEP, 5% glycerol, 1 ug/ul BSA, 15 ng/ul salmon sperm DNA, 30 min on ice; probe 0.1 pmol/ul, competitor 200-fold excess. The conditions noted are these: protein: recombinant; tags: N-terminal GST; label: 5'Cy5 (probe).
As to B6, the Kd came to 7 µM.
In the case of B7, the Kd came to 5 µM.

Another data set concerns the target T1, gTBP (GST-gTBP). Nature of the data set: competition; vs H2B-a probe; better than L; 10 mM Tris-HCl pH 8.0, 0.15 M NaCl, 0.5 mM TCEP, 5% glycerol, 1 ug/ul BSA, 15 ng/ul salmon sperm DNA, 30 min on ice; probe 0.1 pmol/ul, competitor 200-fold excess. The conditions noted are these: protein: recombinant; tags: N-terminal GST.
On to CTGCGGAAGGGGGGAAAAAGCGGGCGGGAAAGAAAT (ssDNA) [H2B-a Right (R)], for which the binding result was “binds”.
As to TAGAAGTGCACAGGGGGGCAGATTTCGGCTGC (ssDNA) [H2B-a L1], the binding result is given as “binds”.

The next data set has as its target T1, gTBP (GST-gTBP). Description: competition; vs H2B-b probe; 10 mM Tris-HCl pH 8.0, 0.15 M NaCl, 0.5 mM TCEP, 5% glycerol, 1 ug/ul BSA, 15 ng/ul salmon sperm DNA, 30 min on ice; probe 0.1 pmol/ul, competitor 200-fold excess. The conditions noted are these: protein: recombinant; tags: N-terminal GST.
As for B8, the binding result is “binds”.
In the case of ATTTCTTTCCCGCCCGCTTTTTCCCCCCTT (ssDNA) [H2B L], the binding result is recorded as “binds”.
Same read-out and setting: as for B9, the entry is “no binding”.

Another data set has as its target T1, gTBP (GST-gTBP). Description: competition; vs H2B-a and H4-a; annealed in Na+ and K+; 10 mM Tris-HCl pH 8.0, 0.15 M NaCl, 0.5 mM TCEP, 5% glycerol, 1 ug/ul BSA, 15 ng/ul salmon sperm DNA, 30 min on ice; probe 0.1 pmol/ul, competitor 200-fold excess. To be noted: protein: recombinant; tags: N-terminal GST.
On to TAGGGTAGGGTAGGGTAGGG (structured_DNA) [Giardia telomere (Gia)], for which the binding result is given as “binds”.
Turning to GGGGTTTTGGGGTTTTGGGGTTTTGGGG (structured_DNA) [Oxytricha telomere (Oxy)], the binding result is recorded as “binds”.
Consider GGGTTAGGGTTAGGGTTAGGGT (structured_DNA) [Human-1 telomere (Hu1)], for which the binding result is given as “binds”.

The target of a further data set is T1, gTBP (GST-gTBP). Description: competition; vs H4-b and H2B-b probes; 10 mM Tris-HCl pH 8.0, 0.15 M NaCl, 0.5 mM TCEP, 5% glycerol, 1 ug/ul BSA, 15 ng/ul salmon sperm DNA, 30 min on ice; probe 0.1 pmol/ul, competitor 200-fold excess. The conditions noted are these: protein: recombinant; tags: N-terminal GST.
Regarding AAAACTCCTCCCTTCCCTTTCTTCCCAAAA (ssDNA) [dn 13], the binding result is listed as “binds”.
As to TTTTTTTTTTTTTTTTTTTTTTTTTTTTTT (ssDNA) [polyT(30)], the binding result was “binds”.
For the molecule AAAAAAAAAAAAAAAAAAAAAAAAAAAAAA (ssDNA) [dn 1], the binding result was “no binding”.
On the same count and under the same terms, under AAAAAAAAAAAAAAAAAAAAAAAAAAAAAA (ssDNA) [polyA(30)] stands “no binding”; under AAAAATTATACCTATGCCGCACTCAAAAAA (ssDNA) [dn 15], “binds”.
As to AAAACTCCTCCCTTGCCGCCGTTCCCAAAA (ssDNA) [dn 8], the binding result was “binds”.
Turning to AAAACTCCTCCCTTCCCGTTCTTCCCAAAA (ssDNA) [dn 12], the binding result was “binds”.
For the molecule AAAATTATACCTATGCCGCCGCACTCAAAA (ssDNA) [dn 14], the binding result was “binds”.
